{
  "source": "patent US20230233607A1",
  "target": "CV1, an engineered high-affinity membrane receptor for CD47",
  "assay": "flow cytometry; HEK 293T cells with light-induced CV1 incubated with biotinylated CD47, detected by streptavidin-PE",
  "data": [
    {"substance": "Biotinylated CD47 protein (from UniProt Q08722 19-135) (ligand)", "values": [
      {"measurement": "percent of engineered cells stained with CD47", "result": "> 80", "unit": "%"}
    ]}
  ]
}
